# Measurements taken from US20250382374A1 (VIRIDIAN THERAPEUTICS, published 2025).
# Residue numbers refer to the chain shown, from its start. Names and notes keep the numbering of the source.
# B1: VRDN-1100 (antibody, V domains shown)
# VH: QVQLVQSGAEVVKPGASVKLSCKASGYTFTSYWMHWVKQRPGQGLEWIGEINPSNGRTNYNQKFQGKATLTVDKSSSTAYMQLSSLTSEDSAVYYFARGRPDYYGSSKWYFDVWGQGTTVTVSS
# VL: DVVMTQTPLSLPVSLGDPASISCRSSQSIVHSNVNTYLEWYLQKPGQSPRLLIYKVSNRFSGVPDRFSGSGAGTDFTLRISRVEAEDLGIYYCFQGSHVPPTFGGGTKLEIKR
# notes: Humanized monoclonal antibody to IGF-1R; also called VRDN-01100
# B2: mutant of VRDN-1100 with a C22S mutation in the heavy chain (antibody, V domains shown)
# VH: B1 VH with C22S
# VL: DVVMTQTPLSLPVSLGDPASISCRSSQSIVHSNVNTYLEWYLQKPGQSPRLLIYKVSNRFSGVPDRFSGSGAGTDFTLRISRVEAEDLGIYYCFQGSHVPPTFGGGTKLEIK
# B3: VRDN-1100 with the Fc YTE mutations in the heavy chain (antibody, human IgG1, kappa)
# heavy: QVQLVQSGAEVVKPGASVKLSCKASGYTFTSYWMHWVKQRPGQGLEWIGEINPSNGRTNYNQKFQGKATLTVDKSSSTAYMQLSSLTSEDSAVYYFARGRPDYYGSSKWYFDVWGQGTTVTVSSASTKGPSVFPLAPSSKSTSGGTAALGCLVKDYFPEPVTVSWNSGALTSGVHTFPAVLQSSGLYSLSSVVTVPSSSLGTQTYICNVNHKPSNTKVDKKVEPKSCDKTHTCPPCPAPELLGGPSVFLFPPKPKDTLYITREPEVTCVVVDVSHEDPEVKFNWYVDGVEVHNAKTKPREEQYNSTYRVVSVLTVLHQDWLNGKEYKCKVSNKALPAPIEKTISKAKGQPREPQVYTLPPSRDELTKNQVSLTCLVKGFYPSDIAVEWESNGQPENNYKTTPPVLDSDGSFFLYSKLTVDKSRWQQGNVFSCSVMHEALHNHYTQKSLSLSPG
# light: DVVMTQTPLSLPVSLGDPASISCRSSQSIVHSNVNTYLEWYLQKPGQSPRLLIYKVSNRFSGVPDRFSGSGAGTDFTLRISRVEAEDLGIYYCFQGSHVPPTFGGGTKLEIKRTVAAPSVFIFPPSDEQLKSGTASVVCLLNNFYPREAKVQWKVDNALQSGNSQESVTEQDSKDSTYSLSSTLTLSKADYEKHKVYACEVTHQGLSSPVTKSFNRGEC
# notes: also called YTE Fc mutatant version of VRDN1100; YTE only mutant
# B4: VRDN-1100 with C22S mutation and Fc YTE mutations in the heavy chain (antibody, human IgG1, kappa)
# heavy: B3 heavy with C22S
# light: B3 light
# notes: also called C22S and Fc YTE mutant; C22S plus YTE mutations
# Key:
# [1] = molecular target: T1, IGF-1R on A549 human lung adenocarcinoma cells or primary human ocular choroid fibroblasts (HOCF) (human, UniProt P08069 31-1367); experiment: cell-based or functional assay
# [2] = molecular target: T1, IGF-1R on A549 human lung …; experiment: flow cytometry on A549 cells, binding dose response curve (MFI)
# Description: (§1) Unbound antibody was removed by washing, and the cells were incubated with an Alexa Fluor 488™—goat anti-human antibody (fluorescently labeled antibody) and a cell impermeable dye to gate live cells. The median fluorescence intensity (MFI) of viable cells was measured by flow cytometry and the data were analyzed using FlowJo™ software. Dose curves were fitted using a non-linear regression model; log (agonist) vs response-variable slope (four parameters).
# [3] = molecular target: T1, IGF-1R on A549 human lung …; experiment: flow cytometry on HOCF cells, binding dose response curve (MFI)
# Description: as §1
# [4] = molecular target: IGF-1R (as used in the surface plasmon resonance assay of Example 7) (UniProt P08069 31-932, limits assumed); experiment: SPR, pH 7.4
# [5] = molecular target: T1, IGF-1R on A549 human lung …; experiment: cell based binding assay on A549 cells; YTE only heavy chain (SEQ ID NO: 94)
# [6] = molecular target: T1, IGF-1R on A549 human lung …; experiment: cell based binding assay on A549 cells; C22S plus YTE heavy chain (SEQ ID NO: 95)
# T1 sequence (P08069 31-1367): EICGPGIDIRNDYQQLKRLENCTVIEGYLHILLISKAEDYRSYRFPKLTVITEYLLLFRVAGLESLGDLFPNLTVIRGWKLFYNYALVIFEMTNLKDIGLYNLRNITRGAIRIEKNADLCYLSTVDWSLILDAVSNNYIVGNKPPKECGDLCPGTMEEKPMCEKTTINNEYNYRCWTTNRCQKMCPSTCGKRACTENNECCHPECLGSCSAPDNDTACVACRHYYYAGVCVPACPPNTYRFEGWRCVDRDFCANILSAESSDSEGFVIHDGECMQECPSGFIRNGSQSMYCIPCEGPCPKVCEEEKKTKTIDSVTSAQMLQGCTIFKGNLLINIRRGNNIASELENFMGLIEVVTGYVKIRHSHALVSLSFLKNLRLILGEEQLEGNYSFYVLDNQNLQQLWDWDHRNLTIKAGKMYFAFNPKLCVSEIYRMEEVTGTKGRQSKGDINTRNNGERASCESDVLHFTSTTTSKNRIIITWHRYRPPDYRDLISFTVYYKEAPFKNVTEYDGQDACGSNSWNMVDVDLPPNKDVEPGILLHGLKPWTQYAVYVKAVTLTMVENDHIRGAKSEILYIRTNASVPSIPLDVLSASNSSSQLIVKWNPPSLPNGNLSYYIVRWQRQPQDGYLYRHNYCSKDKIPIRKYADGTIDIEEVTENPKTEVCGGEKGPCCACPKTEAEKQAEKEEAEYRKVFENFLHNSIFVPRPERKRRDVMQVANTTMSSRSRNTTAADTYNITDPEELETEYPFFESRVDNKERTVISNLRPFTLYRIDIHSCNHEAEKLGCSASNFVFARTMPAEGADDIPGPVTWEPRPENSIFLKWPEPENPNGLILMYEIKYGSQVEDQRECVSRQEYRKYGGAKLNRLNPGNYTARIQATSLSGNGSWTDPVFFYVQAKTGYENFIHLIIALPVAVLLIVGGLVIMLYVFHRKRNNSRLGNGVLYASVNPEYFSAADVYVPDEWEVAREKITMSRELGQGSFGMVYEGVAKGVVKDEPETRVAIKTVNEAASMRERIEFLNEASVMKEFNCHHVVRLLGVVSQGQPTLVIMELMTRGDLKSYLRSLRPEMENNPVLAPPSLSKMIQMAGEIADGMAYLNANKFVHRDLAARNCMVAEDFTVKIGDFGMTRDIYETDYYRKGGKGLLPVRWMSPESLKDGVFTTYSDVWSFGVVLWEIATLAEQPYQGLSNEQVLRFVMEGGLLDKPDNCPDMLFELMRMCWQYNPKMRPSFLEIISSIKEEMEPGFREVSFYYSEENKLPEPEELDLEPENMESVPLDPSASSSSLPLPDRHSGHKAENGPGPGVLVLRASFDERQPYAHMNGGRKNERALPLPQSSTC
# IGF-1R (as used in the surface plasmon resonance assay of Example 7), sequence (P08069 31-932 limits assumed): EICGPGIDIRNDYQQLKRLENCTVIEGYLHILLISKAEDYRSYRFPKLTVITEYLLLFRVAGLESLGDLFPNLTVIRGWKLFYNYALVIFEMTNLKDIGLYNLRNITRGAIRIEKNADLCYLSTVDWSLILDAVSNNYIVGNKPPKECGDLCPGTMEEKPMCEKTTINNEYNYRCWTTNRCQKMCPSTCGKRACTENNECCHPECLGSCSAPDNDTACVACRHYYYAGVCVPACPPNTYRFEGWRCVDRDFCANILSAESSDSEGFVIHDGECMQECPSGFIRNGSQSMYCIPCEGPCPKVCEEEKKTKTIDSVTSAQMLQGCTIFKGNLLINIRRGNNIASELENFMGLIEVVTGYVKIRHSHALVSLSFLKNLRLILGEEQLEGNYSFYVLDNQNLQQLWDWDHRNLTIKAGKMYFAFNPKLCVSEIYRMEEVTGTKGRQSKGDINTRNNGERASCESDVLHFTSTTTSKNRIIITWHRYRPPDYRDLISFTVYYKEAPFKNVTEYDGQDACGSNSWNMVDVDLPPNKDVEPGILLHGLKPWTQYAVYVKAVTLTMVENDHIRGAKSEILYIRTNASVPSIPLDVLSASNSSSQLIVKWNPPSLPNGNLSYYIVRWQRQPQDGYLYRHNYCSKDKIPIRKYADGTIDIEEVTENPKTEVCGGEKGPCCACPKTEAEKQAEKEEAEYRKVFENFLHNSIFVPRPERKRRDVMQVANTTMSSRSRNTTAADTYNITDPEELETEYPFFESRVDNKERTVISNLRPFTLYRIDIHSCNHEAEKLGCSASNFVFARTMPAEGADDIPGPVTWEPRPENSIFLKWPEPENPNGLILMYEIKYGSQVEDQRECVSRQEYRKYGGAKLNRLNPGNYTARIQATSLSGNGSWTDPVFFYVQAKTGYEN
binder,measurement,setting,value
B1,IC50 of inhibition of IGF-1 stimulated receptor phosphorylation on A549 cells (pIGF-1R ELISA),[1],90 pM
same,IC50 of inhibition of IGF-1 stimulated receptor phosphorylation on HOCF cells (pIGF-1R ELISA),[1],90 pM
same,EC50,[2],0.1 nM
same,EC50,[3],0.4 nM
B2,Kd,[4],0.21 nM
same,koff,[4],2.18e-05 s⁻¹
same,kon,[4],104000 M⁻¹ s⁻¹
B3,IC50 of inhibition of IGF-1R autophosphorylation,[1],0.4 nM
same,EC50,[5],0.3 nM
B4,IC50 of inhibition of IGF-1R autophosphorylation,[1],0.37 nM
same,EC50,[6],0.36 nM
